Results on two molecules are retold here after paper PMC11784021, “Structural basis for nuclear import of adeno-associated virus serotype 6 capsid protein” (Journal of Virology, 2024).

Conditions in all cases: both partners purified
The target of experiment [1] is T1, human importin α7 lacking the IBB domain (hIMPα7ΔIBB) (human, UniProt O60684 61-536).
T1 construct: pET30a, His tag with TEV site; also called ΔIBB-IMPα7
Kind of experiment: fluorescence polarisation; FITC-tagged AAV6 VP1-BR peptide at 2 nM; importin isoforms serially diluted from an upper concentration of 4.5 µM; three independent experiments. Background: In fluorescence polarisation assays a small probe gives low polarisation when free and higher when bound to something large.

In experiment [2] the target is T2, human importin α3 lacking the IBB domain (hIMPα3ΔIBB) (human, UniProt O00629 59-521).
T2 construct: pET30a, His tag with TEV site; also called ΔIBB-IMPα3
T2 sequence (looked up): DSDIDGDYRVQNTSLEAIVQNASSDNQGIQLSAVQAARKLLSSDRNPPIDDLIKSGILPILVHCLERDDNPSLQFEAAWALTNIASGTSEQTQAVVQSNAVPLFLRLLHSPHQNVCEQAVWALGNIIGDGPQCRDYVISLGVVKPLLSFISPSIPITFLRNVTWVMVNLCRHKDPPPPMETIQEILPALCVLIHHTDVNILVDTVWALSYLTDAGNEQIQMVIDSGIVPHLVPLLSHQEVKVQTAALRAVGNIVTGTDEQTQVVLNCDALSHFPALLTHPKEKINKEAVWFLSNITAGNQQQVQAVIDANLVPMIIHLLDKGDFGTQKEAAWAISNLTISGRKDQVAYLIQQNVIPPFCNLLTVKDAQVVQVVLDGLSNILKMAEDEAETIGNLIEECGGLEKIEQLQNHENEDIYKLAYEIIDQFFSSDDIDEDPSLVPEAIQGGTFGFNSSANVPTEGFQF
The experiment is described as above.

The target in experiment [3] is T3, mouse importin α2 lacking residues 1-70 (IMPα2ΔIBB) (mouse, UniProt P52293 71-529). The experiment is described as above.
In experiment [4] the target is T4, human importin α5 lacking the IBB domain (hIMP5ΔIBB) (human, UniProt P52294 58-538).
T4 construct: pET30a, His tag with TEV site; also called IMPα5; ΔIBB-IMPα5
The description is as above.

The target of experiment [5] is T3, mouse importin α2 lacking residues 1-70 …. Kind of experiment: crystal structure; co-purified complex of AAV6 VP1-BR and IMPα2; hanging drop, 0.7 M sodium citrate, 0.01 M dithiothreitol, 0.1 M HEPES pH 7.5, 22°C; 2.3 Å.

Several values for one entry are separate records, joined by “and”; a condition that tells them apart may be missing. Equal values may be shown once. Primed or numbered codes have the meaning given here. Ends that are not written are not given here. FITC′ = fluorescein isothiocyanate; Ahx = NCCCCCC(=O)O

T1 sequence (O60684 61-536, stated change not applied): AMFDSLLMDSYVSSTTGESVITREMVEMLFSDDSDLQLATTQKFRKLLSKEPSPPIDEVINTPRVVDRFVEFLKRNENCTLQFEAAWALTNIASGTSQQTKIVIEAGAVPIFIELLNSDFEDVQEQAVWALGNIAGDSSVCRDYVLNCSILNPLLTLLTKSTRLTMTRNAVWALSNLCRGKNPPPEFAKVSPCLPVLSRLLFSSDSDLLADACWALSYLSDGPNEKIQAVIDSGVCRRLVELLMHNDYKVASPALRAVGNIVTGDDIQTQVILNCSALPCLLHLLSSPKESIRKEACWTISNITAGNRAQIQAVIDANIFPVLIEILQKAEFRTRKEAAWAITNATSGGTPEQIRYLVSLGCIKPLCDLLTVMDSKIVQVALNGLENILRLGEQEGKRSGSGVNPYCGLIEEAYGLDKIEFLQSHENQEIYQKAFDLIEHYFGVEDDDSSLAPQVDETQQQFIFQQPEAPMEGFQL
T4 sequence (P52294 58-538, stated change not applied): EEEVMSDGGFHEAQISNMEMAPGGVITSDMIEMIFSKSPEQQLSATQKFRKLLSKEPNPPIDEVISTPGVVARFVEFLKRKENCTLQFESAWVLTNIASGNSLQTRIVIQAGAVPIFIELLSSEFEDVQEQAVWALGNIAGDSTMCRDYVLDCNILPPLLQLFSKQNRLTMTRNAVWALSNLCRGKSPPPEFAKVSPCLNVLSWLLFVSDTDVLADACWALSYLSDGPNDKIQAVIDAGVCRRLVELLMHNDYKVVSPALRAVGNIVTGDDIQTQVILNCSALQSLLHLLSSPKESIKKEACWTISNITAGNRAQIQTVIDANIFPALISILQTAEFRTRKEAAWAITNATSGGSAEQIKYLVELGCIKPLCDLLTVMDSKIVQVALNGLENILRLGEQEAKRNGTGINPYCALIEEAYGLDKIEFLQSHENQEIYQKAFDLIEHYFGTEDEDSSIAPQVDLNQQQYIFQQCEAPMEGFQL

B1: AAV6 VP1-BR FITC-tagged peptide (residues 120-172) (peptide)
peptide: {FITC′-Ahx}-QAKKRVLEPFGLVEEGAKTAPGKKRPVEQSPQEPDSSSGIGKTGQQPAKKRLN
notes: also called FITC-tagged AAV6 VP1-BR; AAV6 VP1-BR FITC peptide; source: synthetic peptide (GenScript)
By Kd is commonly meant the equilibrium constant for the complex coming apart. For B1, the Kd in experiment [1] was 23 nM and 24 nM; in experiment [2], 198 nM; in experiment [3] it was 265 nM; in experiment [4] it was 71 nM.

B2: AAV6 VP1-BR (recombinant, residues 115-174) (domain or fragment)
chain: GRAVFQAKKRVLEPFGLVEEGAKTAPGKKRPVEQSPQEPDSSSGIGKTGQQPAKKRLNFG
notes: A TEV protease site stands upstream of the insert 'for GST-tag cleavage'; 15 residues of it are seen in the final model; also called AAV6 VP1 basic region; source: E. coli (codon optimized, pGEX4T-1), co-purified with IMPα2
B2: in experiment [5], the binding result is on record as “binds”.
